Measurements as given in paper PMC11865472.

Each substance was assayed against biotinylated TGF-β2 homodimer (assay: SPR). Conditions: surface: TGF-β2; parent: est. 33; read off a plot.

Substance	Kd [µM]
zebrafish betaglycan orphan domain (zfBGO) K319A	0.18
zebrafish betaglycan orphan domain (zfBGO) K316A	0.13

Same assay, conditions: surface: TGF-β2; parent: est. 160; read off a plot

Substance	Kd [µM]
rat betaglycan ZP-C domain (BG_(ZP-C)), mammalian-expressed K86A	0.07
rat betaglycan ZP-C domain (BG_(ZP-C)), mammalian-expressed M164A	0.32
rat betaglycan ZP-C domain (BG_(ZP-C)), mammalian-expressed M165A	0.33
rat betaglycan ZP-C domain (BG_(ZP-C)), mammalian-expressed W162A	0.73
rat betaglycan ZP-C domain (BG_(ZP-C)), mammalian-expressed L143A	0.13
rat betaglycan ZP-C domain (BG_(ZP-C)), mammalian-expressed W162A; M165A	1.3
rat betaglycan ZP-C domain (BG_(ZP-C)), mammalian-expressed E130A	1.4
rat betaglycan ZP-C domain (BG_(ZP-C)), mammalian-expressed S155A	0.29
rat betaglycan ZP-C domain (BG_(ZP-C)), mammalian-expressed Q166A	0.2
rat betaglycan ZP-C domain (BG_(ZP-C)), mammalian-expressed D88A	0.23

What follows are substances tested against biotin-TGF-β2 (minimally biotinylated TGF-β2) (human) (assay: SPR; BIAcore X100; minimally biotinylated TGF-β2 captured on a neutravidin CM5 chip, max 50 RU; zfBGO variants injected, 2-fold dilution series (500 or 1000 - 31.3 nM); 10 mM CHES, 150 mM NaCl, 3 mM EDTA, 0.01% P20, pH 8.6; 100 µl/min; 1:1 kinetic model; two consecutive repeats). Conditions: not given.

Substance	Kd [µM]
zfBGO K316A (domain or fragment)	0.135
zfBGO K319A (domain or fragment)	0.175
zebrafish betaglycan orphan domain (zfBGO), wild type (domain or fragment)	0.038
zfBGO L208A (domain or fragment)	0.088

What follows are substances tested against inhibin A (InhA), mature heterodimer (UniProt P05111) (assay: SPR; TGF-β2 (b) or InhA (c) immobilised; BGZP-C mutants injected, 2-fold serial dilutions 500 - 15.6 nM; three consecutive repeats). Conditions: not given.
Chain of inhibin A (InhA), mature heterodimer (P05111 233-366, chain 1 of 2): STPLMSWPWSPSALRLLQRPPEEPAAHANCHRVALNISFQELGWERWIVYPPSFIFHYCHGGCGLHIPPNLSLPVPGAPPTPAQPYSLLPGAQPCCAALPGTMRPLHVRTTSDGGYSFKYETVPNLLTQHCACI
Chain of inhibin A (InhA), mature heterodimer (P08476 311-426, chain 2 of 2, further chain): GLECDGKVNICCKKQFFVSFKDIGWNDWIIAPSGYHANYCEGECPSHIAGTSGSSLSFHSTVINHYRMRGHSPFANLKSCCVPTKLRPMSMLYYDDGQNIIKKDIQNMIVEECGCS

Substance	Kd [µM]
BGZP-C N82A (domain or fragment)	0.968
BGZP-C N82Y (domain or fragment)	0.883
BGZP-C I161Y (domain or fragment)	0.815
BGZP-C I161A (domain or fragment)	1.08

What follows are substances tested against TGF-β2 (growth factor domain, wild type) (human) (assay: SPR; TGF-β2 immobilised on the chip surface; ratBGO, zfBGO, ratBGO-zfBL or ratBGO-Y248A injected, 2-fold dilution series 500 - 31.3 nM; three consecutive repeats). Conditions: not given.

Substance	Kd [µM]
zebrafish betaglycan orphan domain (zfBGO), wild type (domain or fragment)	0.086
ratBGO-zfBL (ratBGO with the shortened binding loop of zfBGO) (from UniProt P26342 31-360) (domain or fragment)	0.088

What follows are substances tested against TGF-β2 (growth factor domain, wild type) (human) (assay: SPR; BIAcore T200; TGF-β2 WT or TGF-β2 mutants amine-coupled (EDC-NHS) to a CM4 chip, max 400 RU; zfBGO WT or BGZP-C WT injected, 2-fold dilution series 250 - 15.6 nM; 10 mM CHES, 150 mM NaCl, 3 mM EDTA, 0.01% P20, pH 8.0; 100 µl/min; 1:1 kinetic model with drift; three consecutive repeats). Conditions: not given.

Substance	Kd [µM]
zebrafish betaglycan orphan domain (zfBGO), wild type (domain or fragment)	0.148

The substances below were run against TGF-β2 (Y50A, L51A) (human) in the same assay as above. Conditions: not given.

Substance	Kd [µM]
zebrafish betaglycan orphan domain (zfBGO), wild type (domain or fragment)	0.205
